Reference: article PMC3279516, “Superhelical Architecture of the Myosin Filament-Linking Protein Myomesin with Unusual Elastic Properties” (PLoS Biology, 2012)

B1: myomesin My11–My13 (residues 1352–1666) (domain or fragment, human, UniProt P52179 1352-1666, looked up)
chain: WIRKQGPHFVEYLSWEVTGECNVLLKCKVANIKKETHIVWYKDEREISVDEKHDFKDGICTLLITEFSKKDAGIYEVILKDDRGKDKSRLKLVDEAFKELMMEVCKKIALSATDLKIQSTAEGIQLYSFVTYYVEDLKVNWSHNGSAIRYSDRVKTGVTGEQIWLQINEPTPNDKGKYVMELFDGKTGHQKTVDLSGQAYDEAYAEFQRLKQAAIAEKNRARVLGGLPDVVTIQEGKALNLTCNVWGDPPPEVSWLKNEKALASDDHCNLKFEAGRTAYFTINGVSTADSGKYGLVVKNKYGSETSDFTVSVFIP
notes: myomesin (MYOM1), human, Ig domains My11–My13, residues 1352–1666 of MYOM1_HUMAN; Vector pET151/D-TOPO with N-terminal His6 and TEV site; also called My11–My13 triplet; source: E. coli BL21 (DE3) CodonPlus-RP, purified (Ni-NTA, size exclusion chromatography)
B2: myomesin My9–My13 (residues 1141–1666) (domain or fragment, human, UniProt P52179 1141-1666, looked up)
chain: TKEVVVNVDDDGVISLNFECDKMTPKSEFSWSKDYVSTEDSPRLEVESKGNKTKMTFKDLGMDDLGIYSCDVTDTDGIASSYLIDEEELKRLLALSHEHKFPTVPVKSELAVEILEKGQVRFWMQAEKLSGNAKVNYIFNEKEIFEGPKYKMHIDRNTGIIEMFMEKLQDEDEGTYTFQLQDGKATNHSTVVLVGDVFKKLQKEAEFQRQEWIRKQGPHFVEYLSWEVTGECNVLLKCKVANIKKETHIVWYKDEREISVDEKHDFKDGICTLLITEFSKKDAGIYEVILKDDRGKDKSRLKLVDEAFKELMMEVCKKIALSATDLKIQSTAEGIQLYSFVTYYVEDLKVNWSHNGSAIRYSDRVKTGVTGEQIWLQINEPTPNDKGKYVMELFDGKTGHQKTVDLSGQAYDEAYAEFQRLKQAAIAEKNRARVLGGLPDVVTIQEGKALNLTCNVWGDPPPEVSWLKNEKALASDDHCNLKFEAGRTAYFTINGVSTADSGKYGLVVKNKYGSETSDFTVSVFIP
notes: myomesin (MYOM1), human, Ig domains My9–My13, residues 1141–1666 of MYOM1_HUMAN; Vector pET151/D-TOPO with N-terminal His6 and TEV site; also called C-terminal myomesin filament; My9–My10–My11–My12–(My13)2–My12′–My11′–My10′–My9′; source: E. coli BL21 (DE3) CodonPlus-RP, purified (Ni-NTA, size exclusion chromatography)

Experiments:
[1] = biological target: the molecule itself; experiment: crystal structure; My11–My13 at 10 mg/ml; 0.1 M MES pH 6, 0.22 M lithium sulfate, 13% PEG 8000; 3.5 Å; molecular replacement with the (My13)2 dimer module of 2R15
[2] = biological target: the molecule itself; experiment: small angle X-ray scattering (SAXS); 4–15 mg/ml, 25 mM Tris/HCl pH 7.5, 150 mM NaCl, 290 K; extrapolated to infinite dilution; mass by comparison with bovine serum albumin

Protein | binding result [1] | stoichiometry N [2]
B1 | binds | 
B2 |  | 2
